Test results: the supplement of paper PMC9170038

Test system: MS2 coat protein
Test: apparent KD of MS2 coat protein; designed switch direction (-1 OFF switch, 1 ON switch): -1; higher = weaker reporter binding
Summary of the method: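 For each design, the apparent KD is the median over clusters of curves fitted to normalised cluster fluorescence. Clusters held RNA switches with common flanks, transcribed on Illumina chips by stalled E. coli RNA polymerase. These were titrated with SNAP-549-labelled MS2 coat protein, doubling from 0.7 or 1.5 nM to 3 µM, without input, with 200 uM small-molecule ligand, or with an oligonucleotide input.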

[1] = input ligand: microRNA oligo, concentration not stated
[2] = Eterna round: R95, input ligand: microRNA oligo, concentration not stated
[3] = Eterna round: R95, input ligand: FMN 200 uM
[4] = Eterna round: R95, input ligand: none

| Sequence | apparent KD of MS2 coat protein (input ligand: FMN 200 uM) [nM] | apparent KD of MS2 coat protein (input ligand: none) [nM] | apparent KD of MS2 coat protein [1] [nM] | apparent KD of MS2 coat protein [2] [nM] | apparent KD of MS2 coat protein [3] [nM] | apparent KD of MS2 coat protein [4] [nM] |
| --- | --- | --- | --- | --- | --- | --- |
| GCACUGCGAGGAUAUACAUGAGGAUCACCCAUGUGUCGGCAGCCAUGUCAGUACAAAUGUAGAAGGCGCGUAAA [EX3 #54] (Eterna round: R97, puzzle: Exclusion 3) | 87.5 | 28.8 |  |  |  |  |
| GCAGAAUACUAGGAUAUGUUGGUCGGAGGGCCAACAGAAGGAGUUACAUGAGGAUCACCCAUGUUCCCAAUGGG [Eternabot (Original) Solution 49] (Eterna round: R97, puzzle: Exclusion 6) | 66.1 | 52.7 |  |  |  |  |
| GCAGAAUGAGUUAGGAUAUGAUGAUUUUUCGGAAAUCAGAAGGAACUUGAGGAUCACCCAAGUAAAGAUAGGGU [JR_BMEx4_Sub064] (Eterna round: R97, puzzle: Brourd's mod of Exclusion 4) | 358 | 236 |  |  |  |  |
| GCAGAAUGAGUUAGGAUAUGAUGAUUUUUCGGAAAUCAGAAGGAACUUGAGGAUCACCCAAGUUAAGAUAGGGU [JR_BMEx4_Sub065] (Eterna round: R97, puzzle: Brourd's mod of Exclusion 4) | 229 | 85 |  |  |  |  |
| GCAGCAACUCUAAUCAAACCAACAUGAGGAUCACCCAUGUCUCAGGAUAUGGUCUGGAUUACAGGCCAGAAGGGAGAAAGCUGC [Eli exng3 - 047] (Eterna round: R96, puzzle: Exclusion NG 3) | 11.6 | 14.9 | 11.4 |  |  |  |
| GCAGCAACUCUAAUCAAAUCAACAUGAGGAUCACCCAUGUCUCAGGAUAUGGUCUGGAUUACAGGCCAGAAGGGAGAAAGCUGC [Eli exng3 - 048] (Eterna round: R96, puzzle: Exclusion NG 3) | 16.5 | 16.6 | 13.9 |  |  |  |
| GCAGCACAUGUAGGAUAUCUGCACGAUUAGUGCAGAGAAGGACAUGAGGAUCACCCAUGUAAUUAAGAUCAAUUAUUAAGCUGC [ENG1/3-C1] (Eterna round: R96, puzzle: Exclusion NG 1) | 374 | 46.1 | 36.4 |  |  |  |
| GCAGCACAUGUAGGAUAUCUGCACGUUUAGUGCAGAGAAGGACAUGAGGAUCACCCAUGUAAUUAAGAUCAAUUAUUAAGCUGC [ENG1/3-C2] (Eterna round: R96, puzzle: Exclusion NG 1) | 178 | 44.2 | 32.1 |  |  |  |
| GCAGCGUAUGUAGGAUAUCGGUCAGUUUCUGAUCGAGAAGGACAUGAGGAUCACCCAUGUAUUAUCAUGCGUGAGCAUGGCUGC [JL ENG1 3.71] (Eterna round: R96, puzzle: Exclusion NG 1) | 499 | 152 | 115 |  |  |  |
| GCAGCUAAGUGUAAUAACACAAUACAUGAGGAUCACCCAUGUGAGGAUAUGGACUGGAUUACAGUCCAGAAGGCACAAUGCUGC [Zipper Style 4] (Eterna round: R96, puzzle: Exclusion NG 3) | 17.2 | 20.9 | 16.2 |  |  |  |
| GCAGCUAGUUCAGGAUAUCAGCACGAUUAGUGCUGAGAAGGGAACAUGAGGAUCACCCAUGUGAUCAAUGCUGCAAUUUUAAUU [ENG1/12-A1] (Eterna round: R96, puzzle: Exclusion NG 1) | 481 | 597 | 235 |  |  |  |
| GCAGGAUAAGUGAGGAUAUACCUCUGGAUACAGAGGUAGAAGGUACAUGAGGAUCACCCAUGUCUAUAACCUGC [Fiskers BMX 4 - 80] (puzzle: Brourd's mod of Exclusion 4) |  |  |  | 12.9 |  |  |
| GCAGGCGUCUUGGCUCGUCUUAUUUUGAGAGGAUUGAUAACAUGAGGAUCACCCAUGUUUGUGGGAGAGUUGCAGUG [JR_SV3TOV2_Sub016] (puzzle: Sensor v3, turn-off variant 2) |  |  |  | 283 | 108 | 133 |
| GCAGGUUAAGUCAGGAUAUACCUAUGGAUACAUAGGUAGAAGGGACAUGAGGAUCACCCAUGUGUCUCGCCUGC [Fiskers BMX 4 - 70] (puzzle: Brourd's mod of Exclusion 4) |  |  |  | 62.7 |  |  |
| GCCGAAAGUGUGAGGAUAUACCUAUGGAAACAUAGGUAGAAGGCACAUGAGGAUCACCCAUGUGGGAAAACGGC [Mat - Exclusion 4 - Eli Mod - D29] (Eterna round: R97, puzzle: Brourd's mod of Exclusion 4) | 322 | 152 |  |  |  |  |
| GCCGAUUAAGUCAGGAUAUACCUAUGGAUACAUAGGUAGAAGGGACAUGAGGAUCACCCAUGUGCCUCAACGGC [Fiskers BMX 4 - 18] (puzzle: Brourd's mod of Exclusion 4) |  |  |  | 18.9 | 71.7 | 22.7 |

| Sequence | apparent KD of MS2 coat protein (input ligand: FMN 200 uM) [nM] | apparent KD of MS2 coat protein (input ligand: none) [nM] | apparent KD of MS2 coat protein [1] [nM] | apparent KD of MS2 coat protein [2] [nM] | apparent KD of MS2 coat protein [3] [nM] | apparent KD of MS2 coat protein [4] [nM] |
| --- | --- | --- | --- | --- | --- | --- |
| GCCGUCAGUGUGAGGAUAUGCCUAUGGAUACGUAGGCAGAAGGCACAUGAGGAUCACCCAUGUCCAAAGACGGC [JL-BMX4-4.30 Eli mod] (Eterna round: R97, puzzle: Brourd's mod of Exclusion 4) | 520 | 181 |  |  |  |  |
| GCCUCACAUGAGGAUCACCCAUGUCAGGAUAUAGGAGACGGUAGCUUUGCUGCCUUCGCUAGAAGGGACUGGCU (puzzle: Exclusion 1) |  |  |  | 29.7 |  |  |
| GCCUUAGGAGUCAGGAUAUACAAUAAAAUAAUUAAGUAGAAGGGACAUGAGGAUCACCCAUGUACAUUACAUUG [alecazam29] (Eterna round: R97, puzzle: Brourd's mod of Exclusion 4) | 31 | 13.6 |  |  |  |  |
| GCCUUAUCCGUCAGGAUAUACAGCCGCUCCUUGUUGUAGAAGGGACAUGAGGAUCACCCAUGUACGUACCAUUG [alecazam5] (Eterna round: R97, puzzle: Brourd's mod of Exclusion 4) | 25.4 | 24.7 |  |  |  |  |
| GCGAAAACAAACAGGUGAAACAUGAGGAUCACCCAUGUCCUCAUUUGCUCGUCUUAUAAGCUAUGCGAAAGCAUAGC [Mat - Sensor v3 - turn-off var 1 - Eli Mod - D55] (puzzle: Sensor v3, turn-off variant 1) |  |  |  | 200 | 283 | 348 |
| GCGAAAGCAAAACAAGUGAACAUGAGGAUCACCCAUGUCCUCAUUUGCUCGUCUUAUAAGCUAUGCGAAAGCAUAGC [Sensor 3, v1 - 9] (puzzle: Sensor v3, turn-off variant 1) |  |  |  | 1220 | 99 | 96.7 |
| GCGAUAACCGAGGAUAUCGGUGAUAGAGAUAAUUGAGAAGGCGGUACAUGAGGAUCACCCAUGUAUACGUGGGC [Eternabot (L2) Solution 87] (Eterna round: R97, puzzle: Exclusion 6) | 16.7 | 15.7 |  |  |  |  |
| GCGCAAACGCCAAAAGGCGAAACAACAUGAGGAUCACCCAUGUAGGAUAUCGAUUGCUUUGCAGUCGAGAAGGGCAUAAUGCGC [JL ENG3 3.80 Mod 4] (Eterna round: R96, puzzle: Exclusion NG 3) | 15.4 | 16.6 | 13 |  |  |  |
| GCGCACCUACCAAAAGGUAGGCCGACAUGAGGAUCACCCAUGUAGGAUAUCGAUUGCUUUGCAGUCGAGAAGGACGUGAUGCGC [JL ENG3 3.80 Mod 18] (Eterna round: R96, puzzle: Exclusion NG 3) | 20.1 | 19.4 | 14.7 |  |  |  |
| GCGCCAUCGUGAGAUGGCGUACCGACAUGAGGAUCACCCAUGUAGGAUAUCGAUUGCUUUGCAGUCGAGAAGGGCGUGAUAAGU [JL ENG3 3.74] (Eterna round: R96, puzzle: Exclusion NG 3) | 27.8 | 29.5 | 24.7 |  |  |  |
| GCGCCAUCGUGAGAUGGCGUAUAUACAUGAGGAUCACCCAUGUAGGAUAUCGAUUGCUUUGCAGUCGAGAAGGGCGUGAUAAUU [JL ENG3 3.69] (Eterna round: R96, puzzle: Exclusion NG 3) | 109 | 82 | 60.5 |  |  |  |
| GCGUCGAGUGUGAGGAUAUGCUGGUCCUUGGAUCAGCAGAAGGCACAUGAGGAUCACCCAUGUGAAAACGAUGC [Mat - Exclusion 4 - JL Mod - D68] (puzzle: Brourd's mod of Exclusion 4) |  |  |  | 18.8 |  |  |
| GCGUGGACUGAGGAUAUCCGAACGGUGCACGGAGGAGAAGGUAGGACAUGAGGAUCACCCAUGUGAACCUAGAU [Ceinormaat] (Eterna round: R97, puzzle: Exclusion 6) | 20.6 | 19.8 |  |  |  |  |
| GCUAGAGCAGGAUAUUUAGAUCCUCACAUGAGGAUCACCCAUGUGGCCGAAAGGCUAAGGAGAGAAGGGCUCUAGC [Omei Ex5 E23] (Eterna round: R97, puzzle: Exclusion 5) | 1580 | 933 |  |  |  |  |
| GCUAGGAGUGUGAGGAUAUGCUGAUCCUUGGAUCAGCAGAAGGCACAUGAGGAUCACCCAUGUGAAGACCUAGC [Mat - Exclusion 4 - JL Mod - D2] (Eterna round: R97, puzzle: Brourd's mod of Exclusion 4) | 169 | 30 |  |  |  |  |
| GCUCGUCUUGUAAUGUUUAACAUGAGGAUCACCCAUGUCACCAACGUCGGAGAUGCAGGUUCAUGUUUUAAUGUAUA [Eternabot (L2) Solution 23] (Eterna round: R97, puzzle: Sensor, turn-off variant 1) | 83.5 | 82.6 |  |  |  |  |
